Data set [1] relates to Tde1tox H279A/D282A (catalytically inactive Ntox15 domain) (Phocaeicola vulgatus). The data set can be described thus: BLI. As to conditions: BLI (Octet Red96), biotinylated oligo on streptavidin sensors, Octet kinetics buffer (Sartorius), association 300 s, dissociation 600 s, one-site equilibrium …. In general terms: BLI is a label-free optical method that tracks binding on a fibre tip over time.

Data set [2] has as its target Tdi orphan A (TdioA), orphan immunity protein. Description: BLI; Octet Red96; hexahistidine immunity proteins (5 mg/mL) immobilised on NTA biosensors; varying concentrations of Tde1^tox H279A/D282A in Octet kinetics buffer; association 300 s, dissociation 600 s; one site fit of equilibrium binding data.
For data set [3], the target named is Tdi orphan B (TdioB), orphan immunity protein. The description is as above.
Data set [4] deals with Tdi1 (cognate immunity protein of Tde1) (Phocaeicola vulgatus). The data set is described as above.

One may read the Kd as the constant that tells how readily two partners part at equilibrium. A high value points to weaker binding. The substance “30-bp random-sequence biotinylated dsDNA” gave an equilibrium dissociation constant (Kd) in data set [1] of 500 nM. The substance “30-nt random-sequence biotinylated ssDNA” came in with a Kd in data set [1] of 500 nM. “Tde1^tox H279A/D282A (catalytically inactive Ntox15 domain of the Hcp-Ntox15 effector Tde1) (domain or fragment)”: the Kd was 24 nM in data set [2], 19 nM in data set [3] and 18 nM in data set [4].
